Data as given in article PMC314469, “Protein Interaction Networks by Proteome Peptide Scanning” (PLoS Biology, 2004).

T1: Abp1 SH3 (ABP1_YEAST), P15891
T1 chain: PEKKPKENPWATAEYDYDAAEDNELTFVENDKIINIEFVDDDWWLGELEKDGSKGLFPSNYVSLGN


Target: T1, Abp1 SH3 (ABP1_YEAST), P15891
Test: SPOT array

Row | Binder | normalised SPOT signal, Boehringer light units (BLU); mean over the file's lines of this peptide
1 | GDTVYIVHWEPSKP [YIL154C 237-250] | 48
2 | GIFNALPPPNTKP [YDL046W 25-37] | 136
3 | GDEGNRNITAPPRP [YHR031C 65-78] | 77.6
4 | GAGVLAMPFAFKP [YBL089W 68-80] | 79.6
5 | GGKYQGFGSTPAKP [YDL226C 208-221] | 56.7
6 | GASTIPASNNPSKP [YIL130W 103-116] | 90.9
7 | GEEHEPVVEIPKRP [YDR342C 45-58] | 70.9
8 | GKSIYFSDIVPSKP [YJL186W 204-217] | 108
9 | GATTLKPATLPAKP [YIL038C 384-397] | 160
10 | GSNATADVSPPKKP [YDL118W 75-88] | 67.3
11 | GAGILAMPYAFKP [YER119C 18-30] | 62.2
12 | GISHTRMPTESRP [YKL165C 94-106] | 80
13 | GGIIPTVNGKPVRP [YBR012W-A 198-211] | 430
14 | GDELSQGPNVLKP [YDR305C 168-180] | 67.5

Now from value to binder:

Row | normalised SPOT signal, Boehringer light units (BLU); mean over the file's lines of this peptide | Binder
15 | 13.4 | GEGHSDQPQNPKP [YML118W 352-364]
16 | 210 | GINMKKGFINPRKP [YLL021W 560-573]
17 | 121 | GDLGKEFGTTPEKP [YPL231W 188-201]
18 | 1130 | GATFAVKEFRPRKP [YOR267C 238-251]
19 | 51.6 | GDAFQDVEGKPLRP [YOR229W 116-129]
20 | 57.2 | GIKTRKFVFNPPKP [YOR065W 294-307]
21 | 51.2 | GDKYQVDPKTSKP [YLR454W 1837-1849]
22 | 78.1 | GDHLQNDPLSLRP [YOR316C 398-410]
23 | 82.3 | GALLDEAPEHPRP [YNL314W 80-92]
